Entries after “also recorded” stand apart in the source; their conditions may differ.
Experiments:
[1] = system: endogenous retroelement MaLR transcripts; assay: MaLR expression analysis after lentiviral transduction of primary human myoblasts; assay type: cell-based; details: lentiviral transduction into primary human myoblasts; real-time RT-PCR relative to RPL13a; FIG. 17E
[2] = system: DUX4 core binding motif oligos (CSF1R, TRIM48); assay: Electromobility shift assay with in vitro translated protein; parameters: species or system human; details: radiolabeled CSF1R and TRIM48 oligos, FIG. 15D
Method: EMSA was performed with ^32P-labeled 31-bp oligonucleotides from endogenous genomic sequences containing the putative DUX4 binding site as probes (sequences below; only forward shown). Radiolabeled probes were incubated with in vitro translated protein generated from pCS2-DUX4-fl or pCS2-DUX4-s^2 vectors using the TNT SP6 Coupled Wheat Germ Extract System (Promega) according to manufacturer's instructions. To obtain supershift of protein-DNA complexes, 0.1 μg of E14-3 anti-DUX4 rabbit monoclonal antibody was added to the mixtures. For competition experiments, excess unlabeled probes of either wild-type or mutant sequences were included in the binding reaction. The gels were prepared and run as previously described (Knoepfler et al., Nucleic Acids Res 27:3752-3761 (1999)).
Supershift with DUX4 antibody E14-3 confirmed the specificity of binding. […] (d) DUX4-s also binds the same core motifs; left, CSF1R; right, TRIM48. Supershift with anti-DUX4 N-terminus antibody E14-3 confirmed specificity of binding.

[3] = molecular target: T1, DUX4-fl (Homo sapiens, UniProt Q9UBX2); assay: Luciferase assay, ZSCAN4 1.9 kb enhancer/promoter reporter, co-transfection of DUX4-fl and DUX4-s; assay type: cell-based; details: equal amounts of DUX4-fl and DUX4-s co-transfected in RD cells; FIG. 17C
T1 construct: expressed in transfected cells; host or cells: human rhabdomyosarcoma cell line RD, transient transfection with pCS2-DUX4-fl
T1 sequence (Q9UBX2 whole entry): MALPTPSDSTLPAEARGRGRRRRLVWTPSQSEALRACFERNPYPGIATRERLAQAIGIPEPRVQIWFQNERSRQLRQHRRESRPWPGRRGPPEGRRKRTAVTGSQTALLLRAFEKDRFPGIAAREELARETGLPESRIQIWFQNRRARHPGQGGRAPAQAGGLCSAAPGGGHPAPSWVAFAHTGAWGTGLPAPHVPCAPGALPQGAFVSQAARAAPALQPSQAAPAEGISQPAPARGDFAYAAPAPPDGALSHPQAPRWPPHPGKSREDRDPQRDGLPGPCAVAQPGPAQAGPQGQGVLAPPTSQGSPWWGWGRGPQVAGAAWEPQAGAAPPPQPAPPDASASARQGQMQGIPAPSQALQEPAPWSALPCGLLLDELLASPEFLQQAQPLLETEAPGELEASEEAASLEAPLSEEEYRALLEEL
Method: (§1) Transient DNA transfections of RD cells were performed using SuperFect (Qiagen) according to manufacturer specifications. Briefly, 3×10^5 cells were seeded per 35 mm plate the day prior to transfection. […] Cells were lysed 24 h post-transfection in Passive Lysis Buffer (Promega). Luciferase activities were quantified using reagents from the Dual-Luciferase Reporter Assay System (Promega) following manufacturer's instructions. Light emission was measured using BioTek Synergy2 luminometer. Luciferase data are given as the averages ±SD of at least triplicates.
To determine whether DUX4 binding might directly regulate transcription of select genes, we cloned the 1.9 kb enhancer and promoter region of the ZSCAN4 gene that includes four DUX4 binding sites as follows: (DUX4 binding sites are underlined.)
The 1.9kb enhancer and promoter region of the ZCAN4 gene that includes the four DUX4 binding sites from ZCAN4 (SEQ ID NO:100) were inserted upstream of the luciferase reporter construct (pGL3 basic luciferase vector) as shown in FIG. 17A. […] Real-time RT-PCR quantitation is reported relative to internal standard RPL13a. All data represent mean+/−SD from at least triplicates.

[4] = system: control human muscle cells; details: cultured human skeletal muscle cells; Geng et al. 2011; cited from earlier work
[5] = system: DUX4 binding sites from TRIM48 and ZSCAN4; assay: Luciferase assay, pGL3-promoter reporter with TRIM48 or ZSCAN4 DUX4 binding sites in RD cells; assay type: cell-based, human; details: RD cells co-transfected with DUX4-s alone; FIG. 16
Method: as §1
The 31 bp DUX4 binding site from TRIM48 (SEQ ID NO:96) or ZSCAN4 (SEQ ID NO:97) were inserted into the luciferase reporter construct upstream of the SV40 promoter, as shown in FIG. 16A.
(A) reporter construct structure; Genomic fragments near the TRIM48 (B) and ZSCAN4 genes (C) containing DUX4 binding sites were cloned into pGL3-promoter reporter vector (schematic, top) and transfected into human rhabdomyoscaroma cell line RD. […] TRIM48mut and ZSCAN4mut, mutated binding sites. Luciferase activity was set relative to control.

[6] = system: control human muscle cells; assay: Expression of DUX4-s in control human muscle cells, apoptosis/toxicity; assay type: cell-based; details: 48 hrs, data not shown
Source text: Both the mRNA analysis and the immunodetection indicate that approximately 0.1% of FSHD muscle nuclei express DUX4 mRNA and protein. This could represent transient bursts of expression or stochastic activation of expression that leads to cell death, or both. […] When DUX4 is expressed in control human muscle cells by lenti-viral delivery, the DUX4 protein is distributed relatively homogeneously during the first 24 hrs and then aggregates in nuclear foci at 48 hrs when the cells are undergoing apoptosis (data not shown). These DUX4 nuclear foci associated with apoptosis are present in the nuclei of FSHD muscle cultures.

[7] = system: DUX4-fl target genes in FSHD muscle cells; assay: Knockdown of DUX4-fl targets in FSHD muscle cells by lentiviral DUX4-s; assay type: cell-based, human; details: FSHD cultured muscle cells transduced with lenti-DUX4-s, 48 hours of differentiation; real-time RT-PCR; FIG. 21
Method: Simultaneously, cells were transduced by lentivirus carrying DUX4-s or GFP along with 8 μg/mL polybrene. Cells were washed and changed to plain differentiation media after 24 hours. Cells were harvested for RNA after 48 hours of differentiation.
One microgram of total RNA was reverse transcribed into first strand cDNA in a 20 uL reaction using SuperScript III (Invitrogen) and digested with 1 U of RNase H (Invitrogen) for 20 min at 37° C. cDNA was diluted and used for quantitative PCR with iTaq SYBR Green supermix with ROX (Bio-Rad). The relative expression levels of target genes were normalized to those of ribosomal protein L13A (RPL13A) by 2^ΔCt. Undetermined values were equated to zero. Standard deviations from the mean of the ΔCt values were calculated from triplicates. PCR primers used for detecting the transcripts of the selected genes are listed in Supplementary methods.
Real-time RT-PCR quantitation of three DUX4 target genes, (A) PRAMEF1, (B) RFPL2 and (C) MBD3L2 in FSHD cultured muscle cells transduced with lenti-GFP or lenti-DUX4-s or untransduced. Abundance of targets was calculated relative to internal standard RPL13a and then set as percentages relative to the untransduced condition. Values represent mean+/−SEM from three independent experiments.

B1: DUX4-s: short splice form of DUX4 (SEQ ID NO:68) keeping the N-terminal double-homeobox domains, lacking the C-terminal domain; expressed from vector (protein, listed as Homo sapiens)
chain: MALPTPSDSTLPAEARGRGRRRRLVWTPSQSEALRACFERNPYPGIATRERLAQAIGIPEPRVQIWFQNERSRQLRQHRRESRPWPGRRGPPEGRRKRTAVTGSQTALLLRAFEKDRFPGIAAREELARETGLPESRIQIWFQNRRARHPGQGGRAPAQV
upregulation of endogenous MaLR transcripts [1]: No upregulation | binding to DUX4 core binding site (EMSA) [2]: specifically binds the same core binding site as DUX4-fl | effect on DUX4-fl induced luciferase activity [3]: diminishes luciferase activity; also recorded: interfered with the activity of DUX4-fl | toxicity of forced over-expression [4]: not toxic | activation of luciferase expression [5]: did not activate expression | induction of apoptosis [6]: does not induce apoptosis | endogenous expression of DUX4-fl target genes (PRAMEF1, RFPL2, MBD3L2) [7]: inhibited the endogenous expression of the target genes; also recorded: blocks expression of DUX4-fl target genes

From patent publication US12624396B2, “Methods for alleviating facioscapulohumeral dystrophy (FSHD) by an antisense nucleic acid molecule inhibiting the expression of double homeobox 4 (DUX4)” (Fred Hutchinson Cancer Center, priority 2010, dated 2026)
